Measurements reported in patent US20160324984A1 (published 2016).

What was measured:
[1] = target: T1, Ac-PYY(PEG3-Dig) (N-terminal acetyl; Lys 2 side chain carries PEG3-digoxigenin-3-carboxymethyl; Pqa at position 3; N-methyl-Arg at position 14; C-terminal amide); assay: size exclusion chromatography and SEC-MALLS; binding through digoxigenin
T1 construct: also called DIG-PYY; Digoxigenin-PYY(3-36) conjugate
T1 peptide: IKXRHYLNWVTRQXY

[2] = target: PYY_helicar (helicar motif engineered PYY); assay: SEC-MALLS
PYY_helicar (helicar motif engineered PYY), sequence (peptide, as listed by the source, change not shown): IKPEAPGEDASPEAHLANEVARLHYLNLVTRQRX

[3] = target: PYY_helicar (helicar motif engineered PYY); assay: column binding [Kd]; method not stated

B1: murine anti-digoxigenin antibody (hybridoma-derived) (antibody, mouse IgG1, V domains shown)
VH: EVQLVESGGGLVKPGGSLKLSCAVSGFTFSDYAMSWIRQTPENRLEWVASINIGATYAYYPDSVKGRFTISRDNAKNTLFLQMSSLGSEDTAMYYCARPGSPYEYDKAYYSMAYWGPGTSVTVSS
VL: DVQMTQSTSSLSASLGDRVTISCRASQDIKNYLNWYQQKPGGTVKLLIYYSSTLLSGVPSRFSGRGSGTDFSLTITNLEREDIATYFCQQSITLPPTFGGGTKLEIK
binding result [1]: binds

B2: anti-helicar motif amino acid sequence antibody (0019) (antibody, V domains shown)
V domain 1: QAVVTQEPSLTVSPGGTVTLTCGSSTGAVTTSNYASWVQQKPGQAFTGLIGGTNNRAPWTPARFSGSLLGGKAALTLSGAQPEDEAEYYCALWYSNHWVFGGGTKLTVL
V domain 2: DAVVTQESALTTSPGETVTLTCRSSTGAVTTSNYASWVQEKPDHLFTGLIGGTNNRAPGVPARFSGSLIGDKAALTITGAQTEDEAIYFCALWYSNHWVFGGGTKLTVL
stoichiometry of the complex (peptides on one bivalent antibody) (peptides per antibody) [2]: 1.6
Kd [3]: 12 nM
